± gives the uncertainty stated by the source.
Assay: protein stability index of a GFP-peptide fusion (yeast GPS) (PSI 1-4); higher = more stable; sorted into four equal gates, so the index is relative within each strain
Details: doa10∆
Procedure, shortened: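 Sequencing reads from sorted gates were used to score each peptide. The library consisted of tiled 17-residue yeast protein peptides fused downstream of GFP on a Cherry-expressing plasmid, pooled and carried in yeast. Mid-log cultures in leucine-free medium were split into four equal gates by GFP/Cherry ratio, and each gate's plasmids were PCR-amplified and Illumina-sequenced. The protein stability index adds up, over all gates, the read frequency multiplied by the gate number.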

| Sequence | protein stability index |
| --- | --- |
| QGVYGAVYETLISRMIF [BRR2] | 2.46 ± 0.11 |
| QHIKVFKLDKDTSNWEL [YGL100W/SEH1] | 3.43 ± 0.15 |
| QHQEEPLLSLDVTPISM [RPN4] | 2.77 ± 0.2 |
| QHYLDTATAPRLFDKLK [QCR6] | 2.96 ± 0.055 |
| QIAFDLVSSASQQLLEI [RPN2] | 2.22 ± 0.068 |
| QIFCVFSGKGVHKLRHY [GRR1] | 2.67 ± 0.068 |
| QIFKVAGENAPSIVFID [RPT2] | 1.84 ± 0.098 |
| QILENYNALFQQNIKFR [YJL039C/NUP192] | 2.73 ± 0.075 |
| QIPTVSSPLGFEETKLS [SIR4] | 3.06 ± 0.12 |
| QIQLAESELSLLEETQA [SMC4] | 2.69 ± 0.066 |
| QIRSADEPMTTFYKCVN [RPC11] | 2.26 ± 0.2 |
| QKCFKLTHRLGGDTCSS [POP1] | 2.27 ± 0.059 |
| QKGITSYAVSPYAQKPL [QCR8] | 2.92 ± 0.13 |
| QKNDTAAFKDIAKRQFK [RRP40] | 2.95 ± 0.093 |
| QKNMNDLLRSQLTSLEK [YIL149C/MLP2] | 2.89 ± 0.073 |
| QKRIENGGNSVITLAEY [SRP68] | 2.47 ± 0.076 |
| QKRNAHGYFLQDKEKID [ITC1] | 3.32 ± 0.098 |
| QKVSENFEAVFERLVPR [SMC3] | 2.53 ± 0.28 |
| QLDAYGEKKVGSNGELF [SWP82] | 3.28 ± 0.13 |
| QLDLCKLYFQLFLNTGC [SRP68] | 2.01 ± 0.038 |
| QLDLTGIFLHGKIPTLK [PRP8] | 2.39 ± 0.078 |
| QLIDQFEWDISNSDNCP [SNF5] | 3.02 ± 0.092 |
| QLKAEEKKILNQFLKIK [SMC1] | 2.8 ± 0.045 |
| QLKNGLLEKYNTNELKE [MTR3] | 2.97 ± 0.055 |
| QLLMGDIPELSFFHQSN [RPN3] | 2.43 ± 0.067 |
| QLLNGQKIVVVRAEELN [RPL16A] | 1.28 ± 0.049 |

| Sequence | protein stability index |
| --- | --- |
| QLNLNNLTPANILNMSM [PGD1] | 3.04 ± 0.1 |
| QLTSLEKDCSLRAIEKN [YIL149C/MLP2] | 2.58 ± 0.068 |
| QLVLRGLLSQAIGCIER [YJR042W/NUP85] | 1.98 ± 0.11 |
| QLYKRDPVSGAILVPMT [YJR042W/NUP85] | 1.95 ± 0.18 |
| QMIQQRHQQLLRSRLQQ [SNF5] | 2.08 ± 0.12 |
| QNGQQPPTTSNLIIFLY [YML103C/NUP188] | 2.83 ± 0.05 |
| QNIILRSTMMKFLKIAS [RPN3] | 2.15 ± 0.072 |
| QNKEIKAERVEDQKVVD [RPL6A] | 3.4 ± 0.067 |
| QNPLNKSQNTALPSTHK [SIR4] | 2.62 ± 0.048 |
| QNTSNMNAGGLFGAKPQ [YGR119C/NUP57] | 2.08 ± 0.055 |
| QNTVPNVLNQINQIFSP [GAL11] | 2.63 ± 0.039 |
| QNVISLGSLTVEDYLSS [RPC82] | 2.83 ± 0.095 |
| QPDANKKKRSRTSATRE [ISW2] | 3.46 ± 0.14 |
| QPDENTKEMDEVEEDDE [SWI3] | 3.22 ± 0.17 |
| QPHIFNNPKVKTSKRTK [RPS11A] | 2.95 ± 0.052 |
| QPIVTGTSVISMKYDNG [PRE4] | 2.1 ± 0.25 |
| QPSDVMFNDLNSMDISM [MED2] | 2.63 ± 0.043 |
| QPTGLLKGLNGFPSAPQ [YMR153W/NUP53] | 3.39 ± 0.14 |
| QPVNINLDSSITQDGKF [YMR129W/POM152] | 2.92 ± 0.098 |
| QQIPLLCYMAPMTVKLV [POP3] | 1.63 ± 0.052 |
| QQLQVLARYLKMDLDNG [FAS2] | 1.9 ± 0.13 |
| QQQLVNQMKVAPIPKQL [GAL11] | 2.94 ± 0.046 |
| QQQQIQVPLQQTQAIAQ [YGR119C/NUP57] | 2.61 ± 0.061 |
| QQQQQQNNSTGSSSIIY [SSN2] | 2.65 ± 0.07 |
| QQQQQQQQPQPQYNMNM [PGD1] | 2.33 ± 0.07 |

Same assay, conditions: pdr5∆

| Sequence | protein stability index |
| --- | --- |
| PQYNMNMGMNNMNNGGK [PGD1] | 3.48 ± 0.19 |

— the supplement of paper PMC9732359
